# B1: Msm MazG (Mycolicibacterium smegmatis MC2 155) (protein)
# chain: MIVVLVDPRRPALVPVDAVEFLTGDVQYTEEMPVKVPWSLPSARPAYDGEDAPVLLSSDPEHPVVKARLAAGDRLIAAPEPQPGERLVDAVALMDKLRTSGPWESEQTHDSLRRYLLEETYELFDAVRSGNADELREELGDVLLQVLFHARIAEDAPHHPFSIDDVADALVRKLGNRVPAVLAGESISLDEQLAQWEERKAQEKKVKARASSMDDVPTGQPALALAQKVLARVSQAGLPAELIPASLTSVSVSADTDSENELRTAVLEFMDTVREVEAAVAAGRRGEDVPEELDVAPLGVISEDEWRAYWPGAESSASEAEPEE
# notes: heterologously expressed, purified to nearly SDS-PAGE homogeneity; strain given for the bacteria, not for the protein
# How the values were obtained:
# Experiment in all cases: pyrophosphate release, enzyme-coupled colorimetric assay
# Assay type in all cases: biochemical, Mycolicibacterium smegmatis
# Conditions in all cases: 20 mM Tris-HCl pH 7.5, 5 mM MgSO4, 100 mM NaCl, 37°C
# [1] = substrate: Nc1nc(=O)n([C@H]2C[C@H](O)[C@@H](COP(=O)(O)OP(=O)(O)OP(=O)(O)O)O2)cc1O
# [2] = substrate: Nc1nc(O)nc2c1ncn2[C@H]1C[C@H](O)[C@@H](COP(=O)(O)OP(=O)(O)OP(=O)(O)O)O1
# [3] = substrate: O=Cc1cn([C@H]2C[C@H](O)[C@@H](COP(=O)(O)OP(=O)(O)OP(=O)(O)O)O2)c(=O)[nH]c1=O
protein,measurement,setting,value
B1,Km,[1],5.6 ± 2.2 µM
same,kcat,[1],0.013 s⁻¹
same,Km,[2],311 µM
same,Km,[3],434 ± 82 µM
same,kcat,[3],1 s⁻¹
